Test in all cases: PBM
In data set [1] the target is p65 (RELA, NF-kB) (Homo sapiens (THP-1-derived macrophages)) (UniProt Q04206). As to conditions: Nuclear extract PBM (PMA-differentiated THP-1; untreated, LPS 45 min, or IFNg+LPS), antibody detection, buffer, salt, pH and temperature not in the material.
The target of data set [2] is T1, TBL1XR1 complex (Homo sapiens (THP-1-derived macrophages)) (UniProt Q9BZK7).
T1 sequence: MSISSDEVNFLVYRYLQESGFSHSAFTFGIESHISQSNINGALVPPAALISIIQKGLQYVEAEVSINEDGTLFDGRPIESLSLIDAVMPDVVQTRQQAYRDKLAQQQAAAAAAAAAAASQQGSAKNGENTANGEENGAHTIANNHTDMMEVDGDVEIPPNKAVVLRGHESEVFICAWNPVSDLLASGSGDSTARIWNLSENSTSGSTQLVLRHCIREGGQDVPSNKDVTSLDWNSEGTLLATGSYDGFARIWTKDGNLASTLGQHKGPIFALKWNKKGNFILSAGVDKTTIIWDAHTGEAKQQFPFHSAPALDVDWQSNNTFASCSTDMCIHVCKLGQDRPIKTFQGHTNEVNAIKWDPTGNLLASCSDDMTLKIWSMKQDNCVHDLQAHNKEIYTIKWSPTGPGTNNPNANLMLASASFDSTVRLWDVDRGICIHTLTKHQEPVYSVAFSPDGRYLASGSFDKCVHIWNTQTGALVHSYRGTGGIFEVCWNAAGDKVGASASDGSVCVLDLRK
The conditions noted are these: IFNg+LPS extract, Nuclear extract PBM (PMA-differentiated THP-1; untreated, LPS 45 min, or IFNg+LPS), antibody detection, buffer, salt, pH and temperature not in the material.

The target in data set [3] is GCN5 complex (Homo sapiens (THP-1-derived macrophages)) (UniProt Q92830). The conditions noted are these: IFNg+LPS extract; Nuclear extract PBM (PMA-differentiated THP-1; untreated, LPS 45 min, or IFNg+LPS), antibody detection; buffer, salt, pH and temperature not in the material.
Sequence of GCN5 complex (Homo sapiens (THP-1-derived macrophages)) (Q92830 whole entry, one chain of several): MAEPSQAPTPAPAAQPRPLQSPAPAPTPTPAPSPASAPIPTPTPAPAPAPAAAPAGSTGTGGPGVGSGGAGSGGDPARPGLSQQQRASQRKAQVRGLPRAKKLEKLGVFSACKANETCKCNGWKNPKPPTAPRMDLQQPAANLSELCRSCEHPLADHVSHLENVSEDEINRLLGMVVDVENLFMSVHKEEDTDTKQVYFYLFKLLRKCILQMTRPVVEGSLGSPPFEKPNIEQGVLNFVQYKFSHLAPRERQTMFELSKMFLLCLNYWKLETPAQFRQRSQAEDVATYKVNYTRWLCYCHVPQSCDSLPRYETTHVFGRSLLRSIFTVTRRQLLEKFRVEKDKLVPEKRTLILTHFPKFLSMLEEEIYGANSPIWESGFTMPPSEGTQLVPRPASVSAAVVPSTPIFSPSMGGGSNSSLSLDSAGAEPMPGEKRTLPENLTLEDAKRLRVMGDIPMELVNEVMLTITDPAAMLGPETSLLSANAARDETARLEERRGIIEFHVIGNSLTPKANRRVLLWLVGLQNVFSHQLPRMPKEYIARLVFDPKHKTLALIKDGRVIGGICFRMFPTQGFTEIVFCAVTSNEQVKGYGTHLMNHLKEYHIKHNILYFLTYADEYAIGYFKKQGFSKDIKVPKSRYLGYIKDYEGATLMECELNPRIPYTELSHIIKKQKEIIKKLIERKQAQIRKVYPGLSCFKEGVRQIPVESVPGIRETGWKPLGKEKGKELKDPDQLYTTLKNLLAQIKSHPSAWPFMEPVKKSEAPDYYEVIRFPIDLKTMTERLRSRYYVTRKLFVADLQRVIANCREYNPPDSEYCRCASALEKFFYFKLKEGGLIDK
Data set [4] addresses RBBP5 complex (Homo sapiens (THP-1-derived macrophages)) (UniProt Q15291). The conditions noted are these: Nuclear extract PBM (PMA-differentiated THP-1; untreated, LPS 45 min, or IFNg+LPS), antibody detection, buffer, salt, pH and temperature not in the material.
For data set [5], the target named is p300 complex (Homo sapiens (THP-1-derived macrophages)) (UniProt Q09472). As to conditions: Nuclear extract PBM (PMA-differentiated THP-1; untreated, LPS 45 min, or IFNg+LPS), antibody detection, buffer, salt, pH and temperature not in the material.
Sequence of p300 complex (Homo sapiens (THP-1-derived macrophages)) (Q09472 whole entry, one chain of several): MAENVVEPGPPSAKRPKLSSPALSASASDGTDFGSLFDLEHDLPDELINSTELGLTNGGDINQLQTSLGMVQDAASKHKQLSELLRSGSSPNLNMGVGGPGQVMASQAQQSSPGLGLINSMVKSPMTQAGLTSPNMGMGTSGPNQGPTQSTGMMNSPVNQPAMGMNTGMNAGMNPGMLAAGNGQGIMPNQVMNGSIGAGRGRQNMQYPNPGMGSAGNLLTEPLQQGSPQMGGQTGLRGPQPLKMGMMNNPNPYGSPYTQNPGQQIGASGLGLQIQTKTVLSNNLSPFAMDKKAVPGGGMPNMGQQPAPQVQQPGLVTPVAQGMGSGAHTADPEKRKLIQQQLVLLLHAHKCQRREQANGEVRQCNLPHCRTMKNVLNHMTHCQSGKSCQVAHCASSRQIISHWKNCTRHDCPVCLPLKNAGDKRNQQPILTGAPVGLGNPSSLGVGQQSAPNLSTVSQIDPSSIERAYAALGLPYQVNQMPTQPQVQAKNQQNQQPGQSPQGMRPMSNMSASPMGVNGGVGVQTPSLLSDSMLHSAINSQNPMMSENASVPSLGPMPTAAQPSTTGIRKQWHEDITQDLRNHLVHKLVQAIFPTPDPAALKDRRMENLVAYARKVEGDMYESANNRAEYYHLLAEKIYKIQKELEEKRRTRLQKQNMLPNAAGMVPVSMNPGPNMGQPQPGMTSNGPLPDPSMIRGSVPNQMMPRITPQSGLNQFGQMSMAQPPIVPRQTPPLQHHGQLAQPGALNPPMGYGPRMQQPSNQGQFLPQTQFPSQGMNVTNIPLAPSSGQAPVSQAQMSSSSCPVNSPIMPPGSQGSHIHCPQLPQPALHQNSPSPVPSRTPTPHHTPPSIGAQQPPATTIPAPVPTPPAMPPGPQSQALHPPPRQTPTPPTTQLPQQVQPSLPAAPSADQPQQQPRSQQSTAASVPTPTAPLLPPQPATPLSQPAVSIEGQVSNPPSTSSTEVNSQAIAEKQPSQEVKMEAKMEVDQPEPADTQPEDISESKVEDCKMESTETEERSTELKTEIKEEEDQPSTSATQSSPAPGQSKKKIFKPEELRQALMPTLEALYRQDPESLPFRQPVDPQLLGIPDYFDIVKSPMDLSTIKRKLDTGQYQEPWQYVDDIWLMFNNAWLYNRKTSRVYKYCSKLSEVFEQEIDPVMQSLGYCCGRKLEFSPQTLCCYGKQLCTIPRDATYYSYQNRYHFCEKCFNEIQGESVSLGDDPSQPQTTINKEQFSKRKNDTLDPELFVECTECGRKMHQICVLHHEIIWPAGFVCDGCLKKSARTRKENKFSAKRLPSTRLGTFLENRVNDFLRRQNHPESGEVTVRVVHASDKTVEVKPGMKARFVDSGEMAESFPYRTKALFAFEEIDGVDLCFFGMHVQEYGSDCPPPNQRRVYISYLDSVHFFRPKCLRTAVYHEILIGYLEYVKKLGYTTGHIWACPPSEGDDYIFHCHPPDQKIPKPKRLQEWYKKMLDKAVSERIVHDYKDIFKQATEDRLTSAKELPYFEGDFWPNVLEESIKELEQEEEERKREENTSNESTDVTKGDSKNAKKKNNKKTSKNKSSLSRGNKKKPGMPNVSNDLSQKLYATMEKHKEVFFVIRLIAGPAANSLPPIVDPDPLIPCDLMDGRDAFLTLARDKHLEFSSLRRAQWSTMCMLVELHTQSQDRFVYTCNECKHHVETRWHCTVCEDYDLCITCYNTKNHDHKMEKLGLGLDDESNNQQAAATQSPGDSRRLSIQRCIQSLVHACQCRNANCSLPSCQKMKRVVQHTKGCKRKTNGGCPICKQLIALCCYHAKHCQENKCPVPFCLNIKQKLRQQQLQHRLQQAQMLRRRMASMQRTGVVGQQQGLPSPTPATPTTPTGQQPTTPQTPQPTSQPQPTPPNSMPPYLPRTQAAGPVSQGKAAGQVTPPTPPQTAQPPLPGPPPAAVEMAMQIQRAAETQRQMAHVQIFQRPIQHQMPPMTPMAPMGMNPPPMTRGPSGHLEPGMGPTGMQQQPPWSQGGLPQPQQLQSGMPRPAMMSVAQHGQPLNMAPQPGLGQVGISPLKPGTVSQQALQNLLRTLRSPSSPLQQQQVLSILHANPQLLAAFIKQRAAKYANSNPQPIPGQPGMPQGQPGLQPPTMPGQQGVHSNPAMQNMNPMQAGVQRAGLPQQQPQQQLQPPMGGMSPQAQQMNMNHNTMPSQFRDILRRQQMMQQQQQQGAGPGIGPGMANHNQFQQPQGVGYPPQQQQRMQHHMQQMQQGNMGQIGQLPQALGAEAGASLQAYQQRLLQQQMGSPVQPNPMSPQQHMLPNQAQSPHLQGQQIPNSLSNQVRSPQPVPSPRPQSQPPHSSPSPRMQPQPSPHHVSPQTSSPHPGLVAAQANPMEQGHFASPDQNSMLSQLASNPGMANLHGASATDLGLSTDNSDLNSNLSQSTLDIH
The target of data set [6] is SMARCA4/BRG1 complex (Homo sapiens (THP-1-derived macrophages)) (UniProt P51532). The conditions noted are these: IFNg+LPS extract, Nuclear extract PBM (PMA-differentiated THP-1; untreated, LPS 45 min, or IFNg+LPS), antibody detection, buffer, salt, pH and temperature not in the material.
The target of data set [7] is PU.1 (Homo sapiens (THP-1-derived macrophages)) (UniProt P17947). As to conditions: IFNg+LPS extract; Nuclear extract PBM (PMA-differentiated THP-1; untreated, LPS 45 min, or IFNg+LPS), antibody detection; buffer, salt, pH and temperature not in the material.
The target of data set [8] is T2, IRF3 (Homo sapiens (THP-1-derived macrophages)) (UniProt Q14653).
T2 sequence: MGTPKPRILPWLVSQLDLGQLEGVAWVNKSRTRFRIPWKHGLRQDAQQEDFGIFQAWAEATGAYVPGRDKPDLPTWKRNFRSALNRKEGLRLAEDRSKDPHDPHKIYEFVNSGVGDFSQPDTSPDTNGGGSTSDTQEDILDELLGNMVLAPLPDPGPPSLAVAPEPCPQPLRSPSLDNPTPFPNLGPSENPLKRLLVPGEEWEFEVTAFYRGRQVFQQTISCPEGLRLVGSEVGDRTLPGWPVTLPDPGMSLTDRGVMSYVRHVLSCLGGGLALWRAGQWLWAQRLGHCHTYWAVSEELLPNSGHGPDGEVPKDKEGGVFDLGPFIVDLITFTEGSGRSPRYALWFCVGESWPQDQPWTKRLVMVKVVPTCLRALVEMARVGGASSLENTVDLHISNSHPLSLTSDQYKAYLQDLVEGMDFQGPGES
The conditions noted are these: LPS 45 min extract; likely tethered by NF-kB; Nuclear extract PBM (PMA-differentiated THP-1; untreated, LPS 45 min, or IFNg+LPS), antibody detection; buffer, salt, pH and temperature not in the material.

The mark [9] stands for this setting: not recruited or below detection.

Data on 16 sequences can be found in article PMC8896503.

Sequence of p65 (RELA, NF-kB) (Homo sapiens (THP-1-derived macrophages)) (Q04206 whole entry): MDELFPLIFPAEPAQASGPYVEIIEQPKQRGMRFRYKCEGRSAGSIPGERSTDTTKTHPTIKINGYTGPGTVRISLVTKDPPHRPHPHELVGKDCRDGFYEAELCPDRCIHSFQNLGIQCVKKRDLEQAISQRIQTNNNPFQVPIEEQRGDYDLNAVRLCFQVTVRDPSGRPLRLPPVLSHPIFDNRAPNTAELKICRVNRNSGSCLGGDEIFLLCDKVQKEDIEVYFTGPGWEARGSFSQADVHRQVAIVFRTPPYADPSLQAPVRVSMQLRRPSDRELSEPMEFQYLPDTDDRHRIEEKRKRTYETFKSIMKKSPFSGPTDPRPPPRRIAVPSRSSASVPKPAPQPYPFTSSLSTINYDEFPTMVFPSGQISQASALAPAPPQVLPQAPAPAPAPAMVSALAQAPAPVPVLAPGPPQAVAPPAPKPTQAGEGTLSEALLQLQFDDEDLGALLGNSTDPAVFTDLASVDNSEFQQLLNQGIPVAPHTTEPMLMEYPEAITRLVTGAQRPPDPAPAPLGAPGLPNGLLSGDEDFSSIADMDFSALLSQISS
Sequence of RBBP5 complex (Homo sapiens (THP-1-derived macrophages)) (Q15291 whole entry, one chain of several): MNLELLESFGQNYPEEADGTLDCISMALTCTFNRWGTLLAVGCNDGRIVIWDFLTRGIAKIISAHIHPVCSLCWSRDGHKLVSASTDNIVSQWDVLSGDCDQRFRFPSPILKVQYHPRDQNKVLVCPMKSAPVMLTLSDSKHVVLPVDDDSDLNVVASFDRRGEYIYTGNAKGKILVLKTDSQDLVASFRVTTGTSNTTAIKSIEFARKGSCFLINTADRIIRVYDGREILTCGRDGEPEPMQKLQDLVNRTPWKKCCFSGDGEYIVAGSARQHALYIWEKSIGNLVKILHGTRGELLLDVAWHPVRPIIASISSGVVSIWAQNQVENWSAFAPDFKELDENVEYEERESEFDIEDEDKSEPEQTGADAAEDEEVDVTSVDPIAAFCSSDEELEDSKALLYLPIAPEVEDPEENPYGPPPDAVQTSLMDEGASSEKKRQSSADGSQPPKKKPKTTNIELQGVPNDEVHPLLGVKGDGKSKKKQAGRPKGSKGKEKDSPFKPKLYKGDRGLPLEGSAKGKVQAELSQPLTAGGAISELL

On to “GCCTAGTATTATTTATTGTAGCCTCCAAGTTACTAGGTCTTGATTCGCTTGACGCTGCTG (double strand) [CXCL10 tile 12]”, for which the binding signal in data set [1] (LPS 45 min extract) was -0.454 Z score.
As for “GAAATTTAGAACGGAAAGTGAAACCA (double strand) [rs10833823 non-REF (G)]”, the binding signal was 28.5 Z score in data set [2], 3.36 Z score in data set [3] and 15.8 Z score in data set [4] (IFNg+LPS extract).
In the case of “GCCTAGTGGCTGTTCCTGGGGAAGTCCCATGTCTAGGTCTTGATTCGCTTGACGCTGCTG (double strand) [CXCL10 tile 4]”, the binding signal in data set [1] (LPS 45 min extract) was determined as 15 Z score.
In the case of “TGATGCAATGAAGTGGGGAAGTATTA (double strand) [rs11950944 REF (G)]”, the binding signal is -0.13 Z score in data set [5] (IFNg+LPS extract, not recruited or below detection); 0.37 Z score in data set [2] (setting [9]); -0.38 Z score in data set [6] (setting [9]); 4.04 Z score in data set [7].
Turning to “GAAATTTAGAACAGAAAGTGAAACCA (double strand) [rs10833823 REF (A)]”, the binding signal came out at 9.71 Z score in data set [2], 1.54 Z score in data set [3] and 10.6 Z score in data set [4] (IFNg+LPS extract).
Take “GCCTAGGACTCGAAGGTATTATTTATTGTAGCCTAGGTCTTGATTCGCTTGACGCTGCTG (double strand) [CXCL10 tile 10]”: the binding signal in data set [1] (LPS 45 min extract) is -0.567 Z score.
The same measure, in the same setting: as for “GCCTAGCAAAACCTGCTGGCTGTTCCTGGGGACTAGGTCTTGATTCGCTTGACGCTGCTG (double strand) [CXCL10 tile 2]”, the figure is -0.374 Z score; as for “GCCTAGTGGGGAAGTCCCATGTTGCAGACTCGCTAGGTCTTGATTCGCTTGACGCTGCTG (double strand) [CXCL10 tile 6]”, 14.3 Z score.
Still for that read-out and setting: as for “GCCTAGTTGCAGACTCGAAGGTATTATTTATTCTAGGTCTTGATTCGCTTGACGCTGCTG (double strand) [CXCL10 tile 9]”, the figure is 0.218 Z score.
Still for that read-out and setting: as for “GCCTAGCTTAGCAAAACCTGCTGGCTGTTCCTCTAGGTCTTGATTCGCTTGACGCTGCTG (double strand) [CXCL10 tile 1]”, the figure is 0.046 Z score; as for “GCCTAGAAGTCCCATGTTGCAGACTCGAAGGTCTAGGTCTTGATTCGCTTGACGCTGCTG (double strand) [CXCL10 tile 7]”, 0.56 Z score.
On to “TGATGCAATGAAATGGGGAAGTATTA (double strand) [rs11950944 non-REF (A)]”, for which the binding signal came to 2.36 Z score in data set [5] (IFNg+LPS extract), 2.61 Z score in data set [2], 2.99 Z score in data set [6] and 5.99 Z score in data set [7].
As to “GCCTAGGTTCCTGGGGAAGTCCCATGTTGCAGCTAGGTCTTGATTCGCTTGACGCTGCTG (double strand) [CXCL10 tile 5]”, the binding signal in data set [1] (LPS 45 min extract) came to 8.52 Z score.
Still for that read-out and setting: with “GCCTAGGAAGGTATTATTTATTGTAGCCTCCACTAGGTCTTGATTCGCTTGACGCTGCTG (double strand) [CXCL10 tile 11]” the figure was -1.38 Z score.
On to “GCCTAGCCTGCTGGCTGTTCCTGGGGAAGTCCCTAGGTCTTGATTCGCTTGACGCTGCTG (double strand) [CXCL10 tile 3]”, for which the binding signal was 3.75 Z score in data set [5] (LPS 45 min extract, replicate 1 (replicate 2: 3.237)); -0.59 Z score in data set [5] (untreated extract, replicate 1 (replicate 2: 0.462)); 20.9 Z score in data set [1] (LPS 45 min extract); 7.49 Z score in data set [1] (untreated extract); 3.17 Z score in data set [8]; -1.16 Z score in data set [4] (LPS 45 min extract). In addition, the binding signal in data set [4] (untreated extract) is -0.828 Z score.
As for “GCCTAGCCATGTTGCAGACTCGAAGGTATTATCTAGGTCTTGATTCGCTTGACGCTGCTG (double strand) [CXCL10 tile 8]”, the binding signal in data set [1] (LPS 45 min extract) worked out at 0.079 Z score.
